Assay results from US20180221507A1 (IMAGINAB, published 2018).

B1: IAB22C-3 (other)
scFv: DVQITQSPSSLSASVGDRVTITCRTSRSISQYLAWYQQKPGKVPKLLIYSGSTLQSGVPSRFSGSGSGTDFTLTISSLQPEDVATYYCQQHNENPLTFGGGTKVEIKSGGGGEVQLVESGGGLVQPGGSLRLSCAASGFNIKDTYIHFVRQAPGKGLEWIGRIDPANDNTLYASKFQGKATISADTSKNTAYLQMNSLRAEDTAVYYCGRGYGYYVFDHWGQGTLVTVSSGGCPPCPPC
notes: Cys-diabody (scFv dimer); also called anti-CD8 Cys-diabody, 3 Cys (CPPCPPC)
B2: IAB22C-1 (other)
scFv: DVQITQSPSSLSASVGDRVTITCRTSRSISQYLAWYQQKPGKVPKLLIYSGSTLQSGVPSRFSGSGSGTDFTLTISSLQPEDVATYYCQQHNENPLTFGGGTKVEIKGGGSGGGGEVQLVESGGGLVQPGGSLRLSCAASGFNIKDTYIHFVRQAPGKGLEWIGRIDPANDNTLYASKFQGKATISADTSKNTAYLQMNSLRAEDTAVYYCGRGYGYYVFDHWGQGTLVTVSSGGC
notes: Cys-diabody (scFv dimer); also called anti-CD8 Cys-diabody, 1 Cys (GGC)
B3: IAB22C-2 (other)
scFv: DVQITQSPSSLSASVGDRVTITCRTSRSISQYLAWYQQKPGKVPKLLIYSGSTLQSGVPSRFSGSGSGTDFTLTISSLQPEDVATYYCQQHNENPLTFGGGTKVEIKSGGGGEVQLVESGGGLVQPGGSLRLSCAASGFNIKDTYIHFVRQAPGKGLEWIGRIDPANDNTLYASKFQGKATISADTSKNTAYLQMNSLRAEDTAVYYCGRGYGYYVFDHWGQGTLVTVSSGGCPPC
notes: Cys-diabody (scFv dimer); also called anti-CD8 Cys-diabody, 2 Cys (CPPC)

biological target: T1, CD8 expressed on the surface of HPB-ALL cells (UniProt P01732 22-235); assay: flow cytometry on HPB-ALL cells, MFI against concentration, four-parameter fit
T1 construct: whole, on cells
Method: The cells were centrifuged at 400 rpm for 5 minutes, re-suspended in 200 uL of cell staining buffer (1% BSA in phosphate buffer saline, 0.09% sodium azide). Data were acquired on the Attune Acoustic Focusing Cytometer (Applied Biosystems, Foster City, Calif.) (FIG. 9A) and Mean Fluorescent Intensity (MFI) values were plotted against concentration for each sample (FIG. 9B). Best fit binding curves and IC₅₀ values were generated with four-parameter logistic nonlinear regression using GraphPad Prism version 6 for Windows (GraphPad Software, La Jolla, Calif.). and binding assessed on an Attune acoustic focusing cytometer (Applied Biosystems) (Table 4.3).

T1 sequence (P01732 22-235): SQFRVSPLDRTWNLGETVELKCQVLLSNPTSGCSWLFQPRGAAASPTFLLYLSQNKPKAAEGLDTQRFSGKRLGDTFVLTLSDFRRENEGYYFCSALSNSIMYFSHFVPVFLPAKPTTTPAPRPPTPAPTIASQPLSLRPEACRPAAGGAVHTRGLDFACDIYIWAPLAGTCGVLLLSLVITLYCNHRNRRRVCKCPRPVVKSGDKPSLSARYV

**Q.** How did the EC50 turn out when B1 was run?
**A.** 0.13 nM

**Q.** For B2, which EC50 is on record?
**A.** 0.08 nM

**Q.** For B3, which EC50 is on record?
**A.** 0.15 nM
